According to article PMC9371665:

Molecular target: TnsB transposase of the type V-K CAST element from Scytonema hofmanni (ShCAST), full length (Scytonema hofmanni)
Assay: cryo-EM structure; TnsB strand-transfer complex: strand-transfer DNA and purified TnsB mixed 1:6, 26 mM Hepes pH 7.5, 5 mM Tris-HCl pH 7.5, 20 mM KCl, 100 mM NaCl, 0.2 mM MgCl2, 15 mM MgOAc2, 37 °C 40 min, then size-exclusion chromatography; C2 symmetry imposed; 3.7 Å

stoichiometry N: 4
Substance: TnsB transposase of the type V-K CAST element from Scytonema hofmanni (ShCAST), full length (enzyme)
